A short description of this data set: soluble on expression in E. coli; label from the status in PepcDB or PDB records.
Turning to “MSNVQEWQQLANKELSRREKTVDSLVHQTAEGIAIKPLYTEADLDNLEVTGTLPGLPPYVRGPRATMYTAQPWTIRQYAGFSTAKESNAFYRRNLAAGQKGLSVAFDLATHRGYDSDNPRVAGDVGKAGVAIDTVEDMKVLFDQIPLDKMSVSMTMNGAVLPVLAFYIVAAEEQGVTPDKLTGTIQNDILKEYLCRNTYIYPPKPSMRIIADIIAWCSGNMPRFNTISISGYHMGEAGANCVQQVAFTLADGIEYIKAAISAGLKIDDFAPRLSFFFGIGMDLFMNVAMLRAARYLWSEAVSGFGAQDPKSLALRTHCQTSGWSLTEQDPYNNVIRTTIEALAATLGGTQSLHTNAFDEALGLPTDFSARIARNTQIIIQEESELCRTVDPLAGSYYIESLTDQIVKQARAIIQQIDEAGGMAKAIEAGLPKRMIEEASAREQSLIDQGKRVIVGVNKYKLDHEDETDVLEIDNVMVRNEQIASLERIRATRDDAAVTAALNALTHAAQHNENLLAAAVNAARVRATLGEISDALEVAFDRYLVPSQCVTGVIAQSYHQSEKSASEFDAIVAQTEQFLADNGRRPRILIAKMGQDGHDRGAKVIASAYSDLGFDVDLSPMFSTPEEIARLAVENDVHVVGASSLAAGHKTLIPELVEALKKWGREDICVVAGGVIPPQDYAFLQERGVAAIYGPGTPMLDSVRDVLNLISQHHD”, the “soluble on expression in E. coli” value is on record as “soluble”.

Take “MSNWGDYQLGGLAPPTEPWLAIRPFLQLPHDFKIVFLSIERGLTRKNDFKTVRQLQKWAYCKPRFCGRGQSPELVIPPVGHPPSSSGLIVKIKQMIRSCVRLASQSTNKLLIFSSLSRNSQLYISMSSSDLGRGFKQGRGTGDSGQSSLYNNERRWKDDDTFNALGATDELSSFLGVCGASAQNDGSMSDVVETLTRLQCCLQDVGAHLATPPKNSSERKQKKTAFDIAMVEWINAEIDRYGDALPAIRQFILSGGGMTSAQLQYSRAICRRAERSIVPLMRDEDVDPMALKFLNRMSDLLFVLGRTACMRNKNEELTYLRPDSFTNLKWDRKSLHEKK”: the “soluble on expression in E. coli” value is listed as “not soluble”.

Take “MSPDKQAAALPRRERNRQAAAASPENSRGKGRRGQRGKNRGCVLTAIHLNVTDLGLGYETKEELIFRYCSGSCEAAETMYDKILKNLSRSRRLTSDKVGQACCRPVAFDDDLSFLDDSLVYHILRKHSAKRCGCI”: the “soluble on expression in E. coli” value was “soluble”.

On to “MSPHYLRQVKESSGSRLIQQRLLHQQQPLHPEWAALAKKQLKGKNPEDLIWHTPEGISIKPLYSKRDTMDLPEELPGVKPFTRGPYPTMYTFRPWTIRQYAGFSTVEESNKFYKDNIKAGQQGLSVAFDLATHRGYDSDNPRVRGDVGMAGVAIDTVEDTKILFDGIPLEKMSVSMTMNGAVIPVLANFIVTGEEQGVPKEKLTGTIQNDILKEFMVRNTYIFPPEPSMKIIADIFEYTAKHMPKFNSISISGYHMQEAGADAILELAYTLADGLEYSRTGLQAGLTIDEFAPRLSFFWGIGMNFYMEIAKMRAGRRLWAHLIEKMFQPKNSKSLLLRAHCQTSGWSLTEQDPYNNIVRTAIEAMAAVFGGTQSLHTNSFDEALGLPTVKSARIARNTQIIIQEESGIPKVADPWGGSYMMECLTNDVYDAALKLINEIEEMGGMAKAVAEGIPKLRIEECAARRQARIDSGSEVIVGVNKYQLEKEDTVEVLAIDNTSVRNRQIEKLKKIKSSRDQALAERCLAALTECAASGDGNILALAVDASRARCTVGEITDALKKVFGEHKANDRMVSGAYRQEFGESKEITSAIKRVHKFMEREGRRPRLLVAKMGQDGHDRGAKVIATGFADLGFDVDIGPLFQTPREVAQQAVDADVHAVGVSTLAAGHKTLVPELIKELNSLGRPDILVMCGGVIPPQDYEFLFEVGVSNVFGPGTRIPKAAVQVLDDIEKCLEKKQQSVAENLYFQSHHHHHHDYKDDDDK”, for which the “soluble on expression in E. coli” value was “soluble”.

For the sequence “MSPLPIIEVMPKLLSGITNSPQLILKAAPGAGKSTYFPLQLLQAGGFHGKIIMLEPRRLAARNIARYLAQQLGEEVGQRVGYRVRGENRVSRATQLEIVTEGIMTRMLQNDPELDGVDVLIFDEFHERSIHADTALALALEVQSALREDLKIVVMSATLDQQALQNLLPQASYVESQGRGFPIEIRYQPLRSDEPLVTAMQRQIRHLLQHETGSLLAFLPGAASINQLTEQLSDLASEVEICPLYGQMEFAAQQRAIAPTAAGRRKVVLATNIAETSLTIEGIRIVLDSGLERSARFDLKTGITRLEQVRIAQSSAEQRAGRAGRLEPGICVRLYSEAQLKQQPWVPEPEMLHTDLAPLALELAQWGAQPSDLAWLNLPPSSAFAQAQQLLQRLGLLDARTQITAAGKEAHLLGVEPRIAAMLLSADRLGESALQSALALTVLLEEPERQVIDVQHSLHRWQQGRHPKQKLLIQRAQSLAHKLDTAFSLSSVDSAWLPLVACLAFPDRIAQQRGQQTGQFLLANGHGAWLAVEDRLSAADYLVALDLMRGQTQASQIFSALELDIHALERVLPALISRVEQVDWDEKAGRLSAEAQWRIDQLVLRREKLPEPDKQKMTQALLSYVRRKGLTVLQWSEDASEWLARARCAAEWLPEEAWPALDDETLLARLELWLEPYLAGVTSVKGLQSVSVLQALKHYLGWELSQQLDEWLPTHHLLPTGNHKKIRYQLGMEPTLSVRMQEVFGEQSSPRVAKGTRAVVMELLSPAQRPLQVTRDLASFWAGAYKEVQKEMKGRYPKHVWPDDPANHVATSKTKRQLNA”, the “soluble on expression in E. coli” value is on record as “soluble”.

Regarding “MSPLTTFLTDAQQQTLHQLIVSARDSGANEEMVKESMDEYLAQILSPDRLQELKTAHDEFEAQRRGKRAAISASDKPEPKKVFDIIDQFTSDYQKFYEESSAVRNRNNIN”, the “soluble on expression in E. coli” value was “soluble”.

As to “MSPNCETPTSSLSTSLRFVPSLACIAEEEPKVIGIRKITVPGSSKPFQVQIPLYDLNIYAPEPPKQPLPDSYQRLLAEMDQYIGGHQNSEMYKEMAKNLRHKVAVEQAENNRLSKSNFTNRDWYWYAEQTRAFVDEPVINSTSKTQESNISECLEETSSSAKSTVMKDEDLFDLSADF”, the “soluble on expression in E. coli” value is on record as “not soluble”.

Regarding “MSPQKRVKNVQAQNRTSQGSSSFQTTLSAWKVKQDPSNSKNISKHGQNNPVGDYEHADDQAEEDALQMAVGYFEKGPIKASQNKDKTLEKHLKTVENVAWKNGLASEEIDILLNIALSGKFGNAVNTRILKCMIPATVISEDSVVKAVSWLCVGKCSGSTKVLFYRWLVAMFDFIDRKEQINLLYGFFFASLQDDALCPYVCHLLYLLTKKENVKPFRVRKLLDLQAKMGMQPHLQALLSLYKFFAPALISVSLPVRKKIYLQNSENLWKTALLAVKQRNRGPSPEPLKLMLGPANVRPLKRKWNSLSVIPVLNSSSYTKECGKKEMSLSDCLNRSGSFPLEQLQSFPQLLQNIHCLELPSQMGSVLNNSLLLHYINCVRDEPVLLRFHYWLSQTLQEECIWYKVNNYEHGKEFTNFLDTIIRAECFLQEGYYSCEAFLYKSLPLWDGLSCRSQFLQLVSWIPFSSFSEVKPLLFDHLAQLFFTSTIYFKCSVLQSLKELLQNWLLWLSMDIHMKPVTNSPLETTLGGSMNCVSKLIHYVGWLSTTAMRLESNNTFLLHFILDFYEKVCDIYINYDLPLVVLFPPGIFYSALLSLDTSILNQLCFIMHRYRKNLTAAKKNELVQKTKSEFNFSSKTYQEFNYYLTSMVGCLWTSKPFAKGIYIDPEILEKTGVAEYKNSLNVVHHPSFLSYAVSFLLQESPEERTVNVSSIRGKKWSWYLDYLFSQGLQGLKLFIRSSVHHSSIPRAEGINCNNQY”, the “soluble on expression in E. coli” value is “soluble”.

Take “MSPRNDSTRKHRKSRSIKDDQHYPPVSFVGVESVGIIECPGSNHLSLASIPTTEFKIPDELALWVRGRIDNVAPKHPCDRRGQQPLAKKEISMNSSRSNSSFPARSPAIMTLMGGVPEAEKEYNVGKDGLLKVSKMMEGGKRYEVSANDRFTVFQQSAGQTCLFTFKA”: the “soluble on expression in E. coli” value is “not soluble”.
